Experimental findings from US20090047301A1 are described below.

The target of assay [1] is HPV16 L2 in HPV16 L1/L2 capsids (pseudovirions, L1/L2 VLPs) (human papillomavirus 16 (HPV16)) (UniProt P03107).
The target of assay [2] is HPV18 L2 in HPV18 pseudovirions (human papillomavirus 18 (HPV18)) (UniProt P06793).
Assay [3] has as its target HPV16 L2 in HPV16 L1/L2 capsids (pseudovirions, L1/L2 VLPs) (human papillomavirus 16 (HPV16)) (UniProt P03107). Nature of the assay: HPV16 L1/L2 VLP ELISA.
The target is the same in assay [4]. As to the kind of experiment: HPV16 L1/L2 VLP ELISA, undiluted hybridoma supernatant. (In general: ELISA stands for enzyme-linked immunosorbent assay.)
Assay [5] has the same target. The source holds these as a separate data set.
The target of assay [6] is full length HPV16 L2 protein (ELISA and Western blot antigen) (human papillomavirus 16 (HPV16)) (UniProt P03107). As to the kind of experiment: L2 protein ELISA, undiluted hybridoma supernatant.

As for RG-1 (antibody), the neutralization of HPV16 pseudovirions, RG-1 ascites (titer (1:x dilution)) in assay [1] was 205000. The neutralization of HPV18 pseudovirions, RG-1 ascites (titer (1:x dilution)) in assay [2] stood at 25600. In assay [3], this substance registered an ELISA titer (titer (1:x dilution)) of 1.02e+06. Besides, in assay [4], the OD405 L1/L2 ELISA is 0.9 OD405. In addition, the HPV16 neutralization (undiluted hybridoma supernatant titrated) (titer (1:x dilution)) in assay [5] amounted to 1280. Besides, in assay [6], the OD405 L2 ELISA was determined as 1.3 OD405.
